Drawing on patent US20100145008A1 (published 2010), this text covers Kd for three molecules.

Sequences and labels used below:
B1: Lys_B3 (designed binder)
chain: GSVKVKFDLCGEEKEVDTSKIVYVARDGKTVLFMYDDNGKSGRGEVSEKDAPKELLDMLARAEREKKL
B2: Lys_H4 (designed binder)
chain: GSVKVKFFWNGEEKEVDTSKIVWVKRAGKCVLFIYDDNGKNGYGDVTEKDAPKELLDMLARAEREKKL
B3: Lys_H8 (designed binder)
chain: GSVKVKFVMCGEEKEVDTSKIITVKRTGKEVDFLYDDNGKNGYGTVYEKDAPKELLDMLARAEREKKL

The target of this assay is T1, lysozyme (Gallus gallus (Chicken), UniProt P00698 19-147).
T1 construct: also called Lysozyme (14.3 kDa)
T1 sequence (P00698 19-147 limits assumed, form in doubt): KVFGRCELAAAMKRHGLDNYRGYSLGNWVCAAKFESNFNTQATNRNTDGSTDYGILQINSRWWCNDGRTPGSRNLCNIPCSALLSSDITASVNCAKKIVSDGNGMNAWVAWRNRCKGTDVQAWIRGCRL
The experiment in a line: Biacore, preliminary data. In general terms: In SPR one partner is held on a chip, and binding of the other changes the refractive index at the surface.
With B1, the Kd (as a rule, the equilibrium constant for the complex coming apart) was roughly 15 nM.

B2: the Kd was roughly 3 nM.

Regarding B3, the Kd is roughly 25 nM.
